Numbering of substitutions follows the chain as printed.
B1: hr2.021 (antibody, V domains shown)
VH: QVQLVQSGAEVKKPGASVKVSCKASEAIFSGSYLHWVRQAPGQGLEWMGIITPSGDKTFYAQRFQGRLTMTRDTSTNTLHMHLSGLNSEDTAMYYCARQADKGGWDYWGQGTLVTVSS
VL: EIVLTQSPGTLSLSPGERATLSCRASQSVTSNYVAWYQQKPGQAPRLLIYGASTRATGIPDRFSGGGSGTDFTLTITRLEPEDFAVYYCQQYGSSPPTFTFGPGTKVDIK
B2: hr2.023 (antibody, V domains shown)
VH: QVQLVQSGAEVKKPGASVKVSCRASENIFSDSYLHWVRQAPGQGLEWMGIITPSGDKTFYAQQFQGRLTMTRDTPTNTLHMDLRGLTSADTAIYYCARQATKGGWDYWGQGTLVTVSS
VL: B1 VL with R18S, S31R, V34L, K40Q, T54N, I59V, G66S, T77S, T100I
B3: hr2.024 (antibody, V domains shown)
VH: QVQLVQSGAEVKKPGASVKVSCKASEDIFTDSYLHWVRQAPGQGLEWMGIITPSGDKTFYAQQFQGRLTMTRDPSTNTLYMFLSGLRSDDTAMYFCARQAEKGGWDYWGHGTLVTVSS
VL: B1 VL with E17Q, A25S, S28T, V29I, V34L, K40R, T54I, G66S, T77S, T100I
B4: hr2.016 (antibody, V domains shown)
VH: EVQLLESGGGLVQPGGSLRLSCAASGFMFSKYAMTWVRQTPGKGLEWVSVISGGGGSTYYADSVKGRFTISRDNSKNTLYLQMNSLRAEDTAVYYCAKLLVVFVIDYWGQGALVTVSS
VL: EIVLTQSPGTLSLSPGERATLFCRASQSVSSNLAWYQQKPGRAPRLLISGASSRATGIPDRFSGSGSGTDFTLTISRLEPEDFAVYYCQQYGSSPPTFGQGTKVEIK
B5: hr2.017 (antibody, V domains shown)
VH: EVQLVESGGGLVQPGGSLRLSCAVSGFAFSSSWMHWIRQAPGRGLVWVSRINRDGSTTDYADSVKGRFTISRDNAKATLYLQMNSLRAEDTAVYYCATMGFDYWGQGALVTVSS
VL: DIVMTQSPDSLAVSLGERATINCKSSQNVLYSSNNKNHLSWYQQKPGQPPKLLIYWASTRKSGVPDRFSGSGSGTDFTLTINSLQAEDVAVYYCQQYFSTPNTFGQGTKLEIK
B6: hr2.090 (antibody, V domains shown)
VH: EVQLLESGGGLVQPGGSLRLSCAASGVTFSRYAMSWVRQAPGKGLEWVSTISGGGGGTYYADSVKGRFTISRDNSKNTLYLQMNSLRAEDTAVYYCATLLTVPGPYYFEYWGQGTLVTVSS
VL: EIVLTQSPGTLSLSPGERATLSCRASQSVSSSYLAWYQQKPGQAPRLLIYGASSRATGIPDRFSGSGSGTDFTLTISRLESEDFAVYYCQHSRFTFGPGTRVDIK
B7: hr2.012 (antibody, V domains shown)
VH: QVQLVQSGAEVKKPGASVKVSCKASGYTFTSHYIHWVRQAPGQGLEWMGIIKPSGGNTIYAQTFQGRVTMTRDTSTSTVYMELRSLTSDDTAVYYCARDQDHGLQRWGQGTLVTVSS
VL: QSVLTQPPSVSAPPGQKVTISCSGSSSNIGNNFVSWYQQLPGTAPKLLIYDNIERPSGIPDRFSGSRSGTSATLGITGLQTGDEADYYCGTWDTSLGAWVFGGGTKVTVL
B8: hr2.013 (antibody, V domains shown)
VH: QVQLVQSGAEVKKPGASVKISCKASGYTFTNNYMNWVRQAPGQGLEWMGIIKPSSGSTIYAHKFQGRVTMTRDTSTSTVYMEVRSLTSEDTAVYYCARDQDHGLQNWGQGTLVTVSS
VL: B7 VL with P13A, P14S, S21Y, G30A, N31S, L40F, I53N, E54Q, V107L
B9: hr2.020 (antibody, V domains shown)
VH: EVQLVQSGAEVKKPGESLKISCKGSGYRFASHWIGWVRQMPGKGLQWMGIIYPGDSDTKYSPSFQGQVTISADKSINTVYLHWTSLKASDTAVYYCARRPPHLDGGDSPIRFDHWGQGTLVTVSS
VL: QSVLTQPPSASGTPGQRVTISCSGSRSNIGSNDVYWYQQFPGTAPKLLIYRNNQRPSGVPDRFSGSKSGTSASLAISGLRSEDEADYYCATWDDRLTGVFGGGTKLTVV
B10: hr2.014 (antibody, V domains shown)
VH: QVQLVQSGAEVKKPGASVKVSCKASGYTFTTYAVHWLRQVPGQRPEWIGWINAANGNTKYSEKFQGRVTITRDTSASTAYMDLRSLRSEDTAVYYCARLLVVRDDPYYYGMDVWGQGTTVTVSS
VL: not shown
B11: fp.001 (antibody, V domains shown)
VH: VQLVESGGGVVQPGRPLRLSCSGSGFIFSNYAMHWVRQAPGKGLEWVAIISFDARNKRYADSVEGRFTISRDNSKNILYLQMNSLRLEDSAVYFCARDLFLSDYDNGVYDPTRGGFDYWGQGTLVTVSS
VL: EIVMTQSPATLSLSPGERATLSCRASQSVNNRLAWYQQKLGQPPRLLISGASTRATGIPARFTGSGSGTEFTLTISSLQSEDFAVYYCQQYHDWPLLSFGGGTKVEIK
B12: fp.010 (antibody, V domains shown)
VH: EVQLLESGGGLVQPGGSLRLSCAASGFTFSTYAMNWVRQAPGKGLEWVSAISSSGLSTQYADSVRGRFTISRDTSKNTLYLHMNSLRAGDTAVYYCAKVEYSGYDPRGPFDSWGQGTLVTVSS
VL: DIQMTQSPSTLSASVGDRVTITCRASQSISGWLAWYQQKPGRAPKLLIYKASSLERGVPSRFSGSGSGTEFTLTISSLQPDDFATYYCQEYSSYPLCTFGQGTKLEIK
B13: fp.008 (antibody, V domains shown)
VH: VQLVESGGGVVQPGRSLRLSCRASGFRFNNYAMHWVRQAPGKGLEWVAIISYEARNEKYAASVKGRFSISRDNAKNTLYLQMNSLRPEDTAIYYCARDVFLSDYDQSGYDVTRGGFDYWGQGTLVTVSS
VL: EIVMTQSPATLSVSPGESATLSCRASQSVSSSLAWYQHKFGQAPRLLIYGASTRATGIPDRFSGSGSGMEFTLTISSLQSEDVAIYYCQQYGDWPLVTFGGGTKVEIK
B14: fp.011 (antibody, V domains shown)
VH: EVQLLESGGGLVQPGGSLRLSCAGSGFTFNNYAMTWVRQAPGRGLEWVSAISGSGGSSHYADSVKGRFTITRDNSKNTLYLQMNSLRAEDTAVYYCAFIDYYSGWSYYYGLDVWGQGTTVTVSS
VL: EIVLTQSPATLSLSPGERATLSCRASQGVRTYVAWYQQKPGQAPRLLIYDASNRATGIPARFSGSGSGTDFTLTISSLEPEDFAVYYCQQRYNWPLCSFGQGTKLEIK
B15: hr2.086 (antibody, V domains shown)
VH: EVQLLESGGGLVQPGGYLRLSCAASGFTFSSYAMSWVRQAPGKGLEWVSVISGGGGSAYYADSVKGRFTISRDNSKNTLYLQMNSLRAEDTAVYYCAKIGMILVFDYWGQGTLVTVSS
VL: EIVLTQSPGTLSLSPGERATLSCRASQSVSNNYLAWYQQKPGQAPRLLISGASSRATGIPDRFSGSGSGTDFTLTISRLEPEDFAVYYCQQYGSSPPTFGQGTKVEIK
B16: hr2.018 (antibody, V domains shown)
VH: EVQLVESGGGLVKPGGSLRLSCVASGSSVIDAWMNWVRQAPGKGLEWVGRIKSKTNGATTDYAAPVKGRFTISRDDSKNLSYLQMNSLKTEDTGIYYCTTSPLPNFDYWGRGTLVTVSS
VL: not shown
B17: hr2.019 (antibody, V domains shown)
VH: B16 VH with V23A, A32V, S53T, T55A, N56S, T59A, A63G, K89R, T90A
VL: DIVMTQSPDFLAVSLGETATINCRSSQSVFYFANNKNYLAWYQQKPGQPPKLLIYWASKRESGVPDRFSGSGSGTDFTLTISSLQAEDVATYYCQQYSSPAITFGPGTKVDIK

Target: MHV HR2 peptide (MHV)
Experiment: peptide ELISA

| Binder | EC50 |
| --- | --- |
| B1 | 0.0333 mg/L |
| B2 | 0.0106 mg/L |
| B3 | 0.0259 mg/L |
| B4 | 0.0266 mg/L |
| B5 | 0.02 mg/L |
| B6 | 0.761 mg/L |
| B7 | 0.0177 mg/L |
| B8 | 0.043 mg/L |
| B9 | 0.0285 mg/L |

Target: SADS HR2 peptide (SADS)
Experiment: peptide ELISA

| Binder | EC50 |
| --- | --- |
| B10 | 0.705 mg/L |
| B4 | 0.0738 mg/L |
| B7 | 0.023 mg/L |
| B8 | 0.042 mg/L |

Target: MERS FP peptide (MERS), K9N5Q8
Experiment: peptide ELISA

| Binder | EC50 |
| --- | --- |
| B11 | 0.0369 mg/L |
| B12 | 0.0593 mg/L |
| B13 | 0.0361 mg/L |
| B14 | 0.0363 mg/L |

Target: SARS-CoV-2 FP peptide (SARS-CoV-2)
Experiment: peptide ELISA

| Binder | EC50 |
| --- | --- |
| B11 | 0.0249 mg/L |
| B12 | 0.119 mg/L |
| B13 | 0.0366 mg/L |
| B14 | 0.0363 mg/L |

Target: HKU4 HR2 peptide (HKU4), A3EX94
Experiment: peptide ELISA

| Binder | EC50 |
| --- | --- |
| B15 | 0.0269 mg/L |
| B1 | 0.021 mg/L |
| B2 | 0.0149 mg/L |
| B3 | 0.0184 mg/L |
| B10 | 0.0457 mg/L |
| B4 | 0.00744 mg/L |
| B16 | 0.0417 mg/L |
| B17 | 0.0154 mg/L |
| B5 | 0.0203 mg/L |
| B6 | 0.425 mg/L |
| B7 | 0.0184 mg/L |
| B8 | 0.0181 mg/L |
| B9 | 0.0352 mg/L |

Target: OC43 FP peptide (OC43), P36334
Experiment: peptide ELISA

| Binder | EC50 |
| --- | --- |
| B11 | 0.0175 mg/L |
| B12 | 0.0421 mg/L |
| B13 | 0.0235 mg/L |
| B14 | 0.0218 mg/L |

Target: NL63 FP peptide (NL63), Q6Q1S2
Experiment: peptide ELISA

| Binder | EC50 |
| --- | --- |
| B11 | 0.0214 mg/L |
| B12 | 0.0451 mg/L |
| B13 | 0.0226 mg/L |
| B14 | 0.0261 mg/L |

Target: SARS-CoV-2 HR2 peptide (SARS-CoV-2), P0DTC2
Experiment: peptide ELISA

| Binder | EC50 |
| --- | --- |
| B1 | 0.0242 mg/L |
| B2 | 0.0175 mg/L |
| B3 | 0.106 mg/L |
| B10 | 0.0357 mg/L |
| B16 | 0.0336 mg/L |
| B17 | 0.0267 mg/L |
| B5 | 0.0145 mg/L |
| B6 | 0.085 mg/L |
| B7 | 0.0196 mg/L |
| B8 | 0.0317 mg/L |
| B9 | 0.0353 mg/L |

Target: HKU1 FP peptide (HKU1)
Experiment: peptide ELISA

| Binder | EC50 |
| --- | --- |
| B11 | 0.0298 mg/L |
| B12 | 0.0372 mg/L |
| B13 | 0.0219 mg/L |
| B14 | 0.0197 mg/L |

Target: SARS-CoV FP peptide (SARS-CoV), P59594
Experiment: peptide ELISA

| Binder | EC50 |
| --- | --- |
| B11 | 0.0289 mg/L |
| B13 | 0.0267 mg/L |
| B14 | 0.023 mg/L |

Target: HKU5 HR2 peptide (HKU5), A3EXD0
Experiment: peptide ELISA

| Binder | EC50 |
| --- | --- |
| B1 | 0.0551 mg/L |
| B2 | 0.0422 mg/L |
| B3 | 0.048 mg/L |
| B10 | 0.0312 mg/L |
| B4 | 0.0256 mg/L |
| B17 | 0.0505 mg/L |
| B5 | 0.0249 mg/L |
| B7 | 0.0204 mg/L |
| B8 | 0.0292 mg/L |
| B9 | 0.0631 mg/L |

Target: 229E FP peptide (229E)
Experiment: peptide ELISA

| Binder | EC50 |
| --- | --- |
| B11 | 0.0232 mg/L |
| B12 | 0.135 mg/L |
| B13 | 0.019 mg/L |
| B14 | 0.0503 mg/L |

Reference: US20250382354A1
